Earlier results in patent publication US20200354411A1, “Chimeric Molecule for Targeting c-Myc in Cells” (priority 2017, published 2020).

Test system: A549 cells
Details: shown in the art

B1: Omomyc: myc dominant negative peptide able to bind E-Box promoter and prevent c-myc binding, SEQ ID NO: 6 (peptide)
chain: TEENVKRRTHNVLERQRRNELKRSFFALRDQIPELENNEKAPKVVILKKATAYILSVQAETQKLISEIDLLRKQNEQLKHKLEQLRNSCA
modifications: Omomyc
concentration at which treated cells showed apoptosis: 10 µM
